Results from EP4703388A1 (Jiangsu Hengrui Pharmaceuticals Co., Ltd., dated 2024).

T1: cyno TF ECD-His (cTF-his) (monkey (cyno))
T1 construct: also called bio-cTF-his; monkey TF-His protein
T1 chain: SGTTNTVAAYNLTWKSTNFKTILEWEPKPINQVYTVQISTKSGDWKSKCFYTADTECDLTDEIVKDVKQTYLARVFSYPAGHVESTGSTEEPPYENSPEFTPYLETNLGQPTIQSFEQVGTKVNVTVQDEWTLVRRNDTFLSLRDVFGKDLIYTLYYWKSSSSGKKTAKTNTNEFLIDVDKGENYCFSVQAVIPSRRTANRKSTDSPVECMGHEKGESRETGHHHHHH


Legend:
[1] = biological target: T2, human TF ECD-His (hTF-his) (human, UniProt P13726 33-251); experiment: SPR Biacore T200, antibody on Protein A chip, TF-His as analyte, 1:1 model
T2 construct: also called bio-hTF-his; human TF-His protein

[2] = biological target: T1, cyno TF ECD-His (cTF-his); experiment: as above

Row | Binder | Kd [1] [nM] | koff [1] [s⁻¹] | kon [1] [M⁻¹ s⁻¹] | Kd [2] [nM] | koff [2] [s⁻¹] | kon [2] [M⁻¹ s⁻¹]
1 | hu67-3 (antibody, human IgG1, kappa, V domains shown) VH: EVQLQESGPGLVKPSQTLSLTCTVSGFSLTNYGVNWIRQPPGKGLEWIGVIWSRGNTDYNAAFISRVTISKDTSKNQVSLKLSSVTAADTAVYYCARKDAVVATDALDYWGQGTTVTVSS VL: DIVMTQSPKSLAVSLGERATINCKASQDVSTAVAWYQQKPGQPPKLLIYSTSYRYTGVPDRFSGSGSGTDFTLTISSLQAEDVAVYYCQQHYSTPYTFGGGTKVEIKR | 14.2 | 0.000663 | 46600 | 13.5 | 0.000431 | 31900
2 | hu67-9 (antibody, human IgG1, kappa, V domains shown) VH: EVTLKQSGPVLVKPTQTLTLTCTVSGFSLTNYGVNWIRQPPRKALEWLAVIWSRGNTDYNAAFISRLTISKDTSKSQVVLKMTNMDPVDTATYYCARKDAVVATDALDYWGQGTTVTVSS VL: DIQMTQSPSSLSASVGDRVTITCKASQDVSTAVAWYQQKPGKAPKLLIYSTSYRYTGVPSRFSGSGSGTDFTFTISSLQPEDIATYYCQQHYSTPYTFGGGTKVEIKR | 16.4 | 0.000564 | 34500 | 10.8 | 0.000351 | 32400
3 | hu67-7 (antibody, human IgG1, kappa, V domains shown) VH: EVQLQESGPGLVKPSQTLSLTCTVSGFSLTNYGVNWIRQPPGKGLEWIGVIWSRGNTDYNAAFISRVTISKDTSKNQVSLKLSSVTAADTAVYYCARKDAVVATDALDYWGQGTTVTVSS VL: DIVMTQSPKSLAVSLGERATINCKASQDVSTAVAWYQQKPGQSPKLLIYSTSYRYTGVPDRFSGSGSGTDFTFTISSLQAEDVAVYYCQQHYSTPYTFGGGTKVEIKR | 14.3 | 0.000584 | 40800 | 10.5 | 0.00036 | 34200
4 | hu67-8 (antibody, human IgG1, kappa, V domains shown) VH: EVQLQESGPGLVKPSQTLSLTCTVSGFSLTNYGVNWIRQPPRKGLEWIGVIWSRGNTDYNAAFISRVTISKDNSKSQVSLKLSSVTAADTAVYYCARKDAVVATDALDYWGQGTTVTVSS VL: DIVMTQSPKSLAVSLGERATINCKASQDVSTAVAWYQQKPGQSPKLLIYSTSYRYTGVPDRFSGSGSGTDFTFTISSLQAEDVAVYYCQQHYSTPYTFGGGTKVEIKR | 17.1 | 0.000668 | 39000 | 13.7 | 0.000446 | 32500
5 | hu67-10 (antibody, human IgG1, kappa, V domains shown) VH: EVTLKQSGPVLVKPTQTLTLTCTVSGFSLTNYGVNWIRQPPRKGLEWLGVIWSRGNTDYNAAFISRLTISKDNSKSQVVLKMTNMDPVDTATYYCARKDAVVATDALDYWGQGTTVTVSS VL: DIQMTQSPSSLSASVGDRVTITCKASQDVSTAVAWYQQKPGKAPKLLIYSTSYRYTGVPSRFSGSGSGTDFTFTISSLQPEDIATYYCQQHYSTPYTFGGGTKVEIKR | 15.2 | 0.000594 | 39200 | 8.9 | 0.000356 | 40000
6 | hu67-1 (antibody, human IgG1, kappa, V domains shown) VH: EVTLKQSGPVLVKPTQTLTLTCTVSGFSLTNYGVNWIRQPPRKALEWLAVIWSRGNTDYNAAFISRLTISKDTSKSQVVLKMTNMDPVDTATYYCARKDAVVATDALDYWGQGTTVTVSS VL: DIVMTQSPKSLAVSLGERATINCKASQDVSTAVAWYQQKPGQPPKLLIYSTSYRYTGVPDRFSGSGSGTDFTLTISSLQAEDVAVYYCQQHYSTPYTFGGGTKVEIKR | 13.6 | 0.000585 | 42900 | 14.8 | 0.000358 | 24100
7 | hu67-6 (antibody, human IgG1, kappa, V domains shown) VH: EVTLKQSGPVLVKPTQTLTLTCTVSGFSLTNYGVNWIRQPPRKGLEWLGVIWSRGNTDYNAAFISRLTISKDNSKSQVVLKMTNMDPVDTATYYCARKDAVVATDALDYWGQGTTVTVSS VL: DIVMTQSPKSLAVSLGERATINCKASQDVSTAVAWYQQKPGQSPKLLIYSTSYRYTGVPDRFSGSGSGTDFTFTISSLQAEDVAVYYCQQHYSTPYTFGGGTKVEIKR | 21.7 | 0.000652 | 30000 | 14.3 | 0.000428 | 29900

Continued by falling Kd [1], values first:

Row | Kd [1] [nM] | koff [1] [s⁻¹] | kon [1] [M⁻¹ s⁻¹] | Kd [2] [nM] | koff [2] [s⁻¹] | kon [2] [M⁻¹ s⁻¹] | Binder
8 | 19.2 | 0.000702 | 36500 | 14.8 | 0.000478 | 32200 | hu67-16 (antibody, human IgG1, kappa, V domains shown) VH: EVQLQESGPGLVKPSQTLSLTCTVSGFSLTNYGVNWIRQPPRKGLEWIGVIWSRGNTDYNAAFISRVTISKDNSKSQVSLKLSSVTAADTAVYYCARKDAVVATDALDYWGQGTTVTVSS VL: DIQMTQSHKFLSASVGDRVTITCKASQDVSTAVAWYQQKPGKSPKLLIYSTSYRYTGVPSRFSGSGSGTDFTFTISSLQPEDIATYYCQQHYSTPYTFGGGTKVEIKR
9 | 19.1 | 0.000638 | 33400 | 13.4 | 0.000419 | 31200 | hu67-15 (antibody, human IgG1, kappa, V domains shown) VH: EVQLQESGPGLVKPSQTLSLTCTVSGFSLTNYGVNWIRQPPGKGLEWIGVIWSRGNTDYNAAFISRVTISKDTSKNQVSLKLSSVTAADTAVYYCARKDAVVATDALDYWGQGTTVTVSS VL: DIQMTQSHKFLSASVGDRVTITCKASQDVSTAVAWYQQKPGKSPKLLIYSTSYRYTGVPSRFSGSGSGTDFTFTISSLQPEDIATYYCQQHYSTPYTFGGGTKVEIKR
10 | 18.7 | 0.000731 | 39200 | 14 | 0.000468 | 33400 | hu67-12 (antibody, human IgG1, kappa, V domains shown) VH: EVQLQESGPGLVKPSQTLSLTCTVSGFSLTNYGVNWIRQPPRKGLEWIGVIWSRGNTDYNAAFISRVTISKDNSKSQVSLKLSSVTAADTAVYYCARKDAVVATDALDYWGQGTTVTVSS VL: DIQMTQSPSSLSASVGDRVTITCKASQDVSTAVAWYQQKPGKAPKLLIYSTSYRYTGVPSRFSGSGSGTDFTFTISSLQPEDIATYYCQQHYSTPYTFGGGTKVEIKR
11 | 17.7 | 0.000582 | 32800 | 15.1 | 0.00039 | 25800 | hu67-5 (antibody, human IgG1, kappa, V domains shown) VH: EVTLKQSGPVLVKPTQTLTLTCTVSGFSLTNYGVNWIRQPPRKALEWLAVIWSRGNTDYNAAFISRLTISKDTSKSQVVLKMTNMDPVDTATYYCARKDAVVATDALDYWGQGTTVTVSS VL: DIVMTQSPKSLAVSLGERATINCKASQDVSTAVAWYQQKPGQSPKLLIYSTSYRYTGVPDRFSGSGSGTDFTFTISSLQAEDVAVYYCQQHYSTPYTFGGGTKVEIKR
12 | 15.8 | 0.000673 | 42600 | 12.7 | 0.000429 | 33700 | hu67-2 (antibody, human IgG1, kappa, V domains shown) VH: EVTLKQSGPVLVKPTQTLTLTCTVSGFSLTNYGVNWIRQPPRKGLEWLGVIWSRGNTDYNAAFISRLTISKDNSKSQVVLKMTNMDPVDTATYYCARKDAVVATDALDYWGQGTTVTVSS VL: DIVMTQSPKSLAVSLGERATINCKASQDVSTAVAWYQQKPGQPPKLLIYSTSYRYTGVPDRFSGSGSGTDFTLTISSLQAEDVAVYYCQQHYSTPYTFGGGTKVEIKR
